The test deals with recombinant NRP1-derived trap consisting of the extracellular domain of NRP1 (UniProt O14786 22-856). The test can be described thus: SPR. A general note: In SPR one partner is held on a chip, and binding of the other changes the refractive index at the surface.

This passage reports koff results from publication PMC8103107 (2021).

Sequence of recombinant NRP1-derived trap consisting of the extracellular domain of NRP1 (O14786 22-856): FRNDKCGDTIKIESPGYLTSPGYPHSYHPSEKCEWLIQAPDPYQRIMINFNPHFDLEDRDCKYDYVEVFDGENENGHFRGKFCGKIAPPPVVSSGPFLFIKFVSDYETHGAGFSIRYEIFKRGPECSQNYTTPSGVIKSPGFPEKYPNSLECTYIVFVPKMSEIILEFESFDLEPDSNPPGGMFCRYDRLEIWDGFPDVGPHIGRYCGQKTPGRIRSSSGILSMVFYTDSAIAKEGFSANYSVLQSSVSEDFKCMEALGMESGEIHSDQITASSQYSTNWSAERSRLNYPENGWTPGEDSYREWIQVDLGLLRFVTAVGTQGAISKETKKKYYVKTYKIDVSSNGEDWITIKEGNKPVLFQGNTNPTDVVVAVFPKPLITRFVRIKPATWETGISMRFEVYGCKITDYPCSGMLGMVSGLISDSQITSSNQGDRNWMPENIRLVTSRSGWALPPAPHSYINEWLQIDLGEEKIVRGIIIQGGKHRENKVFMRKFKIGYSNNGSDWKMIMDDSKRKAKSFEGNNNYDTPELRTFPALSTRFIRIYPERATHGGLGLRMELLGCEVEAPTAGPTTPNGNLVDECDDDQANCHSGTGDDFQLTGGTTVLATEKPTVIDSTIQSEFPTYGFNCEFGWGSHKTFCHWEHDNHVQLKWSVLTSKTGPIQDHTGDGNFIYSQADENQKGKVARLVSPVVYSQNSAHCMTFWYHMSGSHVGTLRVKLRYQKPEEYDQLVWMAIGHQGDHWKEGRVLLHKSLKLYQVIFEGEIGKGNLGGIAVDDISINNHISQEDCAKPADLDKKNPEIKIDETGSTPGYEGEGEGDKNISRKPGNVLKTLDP

B1: Semaphorin 3A (ligand)
chain: NYQNGKNNVPRLKLSYKEMLESNNVITFNGLANSSSYHTFLLDEERSRLYVGAKDHIFSFDLVNIKDFQKIVWPVSYTRRDECKWAGKDILKECANFIKVLKAYNQTHLYACGTGAFHPICTYIEIGHHPEDNIFKLENSHFENGRGKSPYDPKLLTASLLIDGELYSGTAADFMGRDFAIFRTLGHHHPIRTEQHDSRWLNDPKFISAHLISESDNPEDDKVYFFFRENAIDGEHSGKATHARIGQICKNDFGGHRSLVNKWTTFLKARLICSVPGPNGIDTHFDELQDVFLMNFKDPKNPVVYGVFTTSSNIFKGSAVCMYSMSDVRRVFLGPYAHRDGPNYQWVPYQGRVPYPRPGTCPSKTFGGFDSTKDLPDDVITFARSHPAMYNPVFPMNNRPIVIKTDVNYQFTQIVVDRVDAEDGQYDVMFIGTDVGTVLKVVSIPKETWYDLEEVLLEEMTVFREPTAISAMELSTKQQQLYIGSTAGVAQLPLHRCDIYGKACAECCLARDPYCAWDGSACSRYFPTAKRRTRRQDIRNGDPLTHCSDLHHDNHHGHSPEERIIYGVENSSTFLECSPKSQRALVYWQFQRRNEERKEEIRVDDHIIRTDQGLLLRSLQQKDSGNYLCHAVEHGFIQTLLKVTLEVIDTEHLEELLHKDDDGDGSKTKEMSNSMTPSQKVWYRDFMQLINHPNLNTMDEFCEQVWKRDRKQRRQRPGHTPGNSNKWKHLQENKKGRNRRTHEFERAPRSV
On to B1, for which the koff stood at 0.000155 s⁻¹.

B2: vascular endothelial growth factor A (ligand)
chain: APMAEGGGQNHHEVVKFMDVYQRSYCHPIETLVDIFQEYPDEIEYIFKPSCVPLMRCGGCCNDEGLECVPTEESNITMQIMRIKPHQGQHIGEMSFLQHNKCECRPKKDRARQENPCGPCSERRKHLFVQDPQTCKCSCKNTDSRCKARQLELNERTCRCDKPRR
modifications: Assumed to be VEGF165, the customary recombinant product, because the isoform is not printed. Mature residues 1-165 equal entry residues 207-395 with the exon 6a region 321-345 replaced by the splice-junction Asn. K321N is this natural splice residue, not an engineered mutation. Disulfide-linked antiparallel homodimer.
For B2, the koff is 0.0012 s⁻¹.

By koff is commonly meant a measure of how fast the partners let go of each other.
